Test results as given in US20260103529A1, “Amino Acid Sequences Directed Against the Melanocortin 4 Receptor and Polypeptides Comprising the Same for the Treatment of MC4R-Related Diseases and Disorders” (Confo Therapeutics N.V., priority 2022, published 2026).

Biological target: MC4R of the CHO stable cell line used for radioligand displacement (Table 1A) (UniProt P32245)
Experiment: radioligand displacement, CHO stable cell line, n = 2; radioligand not named

B1: pN0162 (VHH)
VHH: QVQLVESGGGLVQPGGSLRLSCAASGSAFSLNVMGWYRQTPGNQRALVAEITKDGSTNYADSAKGRFTISRDNAKNTVHLQMDSLKPEDTAVYYCKARTGRIVRPLDYWGQGTQVTVSS
Binder B1 has a Radioligand displacement (IC50 or Ki not stated) of 6.48 nM.
